According to article doi:10.1101/2021.06.22.449413, “A Thioredoxin reductive mechanism balances the oxidative protein import pathway in the intermembrane space of mitochondria” (bioRxiv, 2021):

B3: Mia40Δ290 His (S. cerevisiae Mia40 devoid of the N-terminal 290 residues) (domain or fragment, UniProt P36046 291-403, looked up)
chain: EINWDCPCLGGMAHGPCGEEFKSAFSCFVYSEAEPKGIDCVEKFQHMQDCFRKYPEHYAEQLKETSDDEEPQDKVKVNTIESAPNVSSAKENAAKKAEQSDVKKEPLNEESKP
notes: Mia40, S. cerevisiae, lacking the first 290 amino acids; core domain of about 15 kDa; also called core domain of Mia40; soluble functional domain of Mia40; source: purified as 6His-tagged protein

Tests used:
[1] = target: the molecule itself; assay: cross-linking; glutaraldehyde 0.1 % final, equimolar purified proteins alone or together, 50 mM Hepes-KOH pH 7.4, on ice, 20 seconds to 10 minutes; SDS-PAGE and anti-His immunoblot
[2] = target: B3; assay: ITC; 1 mM Mia40Δ290 His in the syringe, 0.1 mM TrxC30/33SHis in the cell; Kd calculated with the Origin software; conditions: both partners purified
[3] = target: B3; assay: cross-linking; glutaraldehyde 0.1 % final, equimolar purified proteins alone or together, 50 mM Hepes-KOH pH 7.4, on ice, 20 seconds to 10 minutes; SDS-PAGE and anti-His immunoblot; conditions: both partners purified

B1: Trx1 C30/33S double mutant, His-tagged (natural protein, S. cerevisiae, UniProt P22217 1-103, looked up)
chain: MVTQFKTASEFDSAIAQDKLVVVDFYATWSGPSKMIAPMIEKFSEQYPQADFYKLDVDELGDVAQKNEVSAMPTLLLFKNGKEVAKVVGANPAAIKQAIAANA
notes: Thioredoxin 1 (Trx1), S. cerevisiae, both active-site cysteines changed to serine; also called Trx1His C30/33S; TrxC30/33SHis; source: purified as 6His-tagged protein
Question: Does B1 bind [1]?
Answer: Result: binds

Question: What about the Kd [2] of the same binder?
Answer: The Kd was 30 µM.

B2: Thioredoxin 1 (Trx1), His-tagged, wild type (natural protein, S. cerevisiae, UniProt P22217 1-103, looked up)
chain: MVTQFKTASEFDSAIAQDKLVVVDFYATWCGPCKMIAPMIEKFSEQYPQADFYKLDVDELGDVAQKNEVSAMPTLLLFKNGKEVAKVVGANPAAIKQAIAANA
notes: Thioredoxin 1 (Trx1), S. cerevisiae, cytosolic isoform; cloned in PET24 vector; also called Trx1His wt; TrxHis; source: E. coli, purified (Ni-NTA); for the pull-down imported into isolated wt yeast mitochondria
Question: Does B2 bind [3]?
Answer: Result: binds

Question: Does B2 bind [1]?
Answer: Result: binds

Question: Does B3 bind [1]?
Answer: Result: binds

B4: Thioredoxin 2 (Trx2), His-tagged (natural protein, S. cerevisiae, UniProt P22803 1-104, looked up)
chain: MVTQLKSASEYDSALASGDKLVVVDFFATWCGPCKMIAPMIEKFAEQYSDAAFYKLDVDEVSDVAQKAEVSSMPTLIFYKGGKEVTRVVGANPAAIKQAIASNV
notes: Thioredoxin 2 (Trx2), S. cerevisiae, cytosolic isoform; source: purified as 6His-tagged protein
Question: Does B4 bind [3]?
Answer: Result: binds

Question: Does B4 bind [1]?
Answer: Result: binds
